Experimental data published in patent US20230257470A1 (published 2023).

Columns and labels:
[1] = target: T1, human FcγRIIa(H) (human, UniProt P12318 36-217); experiment: SPR, antibody captured, FcγR as analyte, capture-corrected binding amount
T1 construct: also called FcgRIIaH; FcγRIIa type H
T1 sequence: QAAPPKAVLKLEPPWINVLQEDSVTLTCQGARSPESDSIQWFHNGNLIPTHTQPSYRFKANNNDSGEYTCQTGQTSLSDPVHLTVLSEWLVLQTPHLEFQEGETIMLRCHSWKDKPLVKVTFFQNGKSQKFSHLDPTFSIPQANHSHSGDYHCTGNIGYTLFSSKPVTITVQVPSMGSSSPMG
Experimental: (§1) Interaction between each modified antibody and Fcγ receptor prepared in the manner described above was analyzed using the BIACORE™ T100 surface plasmon resonance system (GE Healthcare), BIACORE™ T200 surface plasmon resonance system (GE Healthcare), BIACORE™ A100 surface plasmon resonance system or BIACORE™ 4000 surface plasmon resonance system. HBS-EP+(GE Healthcare) was used for the running buffer, and measurements were carried out at 25° C. The chips used were chips in which antigen peptides, Protein A (Thermo Scientific), Protein A/G (Thermo Scientific) or Protein L (ACTIGEN® protein (Alltech or BioVision) were immobilized on the Series S Sensor Chip CM5 (GE Healthcare) or Series S Sensor Chip CM4 (GE Healthcare) by amine coupling, or chips in which preliminarily biotinylated antigen peptides were allowed to interact and then immobilized on the Series S Sensor Chip SA (certified) (GE Healthcare). The target antibodies were captured on these sensor chips, Fcγ receptor diluted with the running buffer was allowed to interact, followed by measurement of the amount of bound antibody. The amounts bound were compared between antibodies. However, since the amount of Fcγ receptor bound depends on the amount of captured antibody, the values used for comparison were first corrected by dividing the amount of Fcγ receptor bound by the captured amount of each antibody. Through reaction with 10 mM glycine-HCl at pH 1.5, the sensor chips were regenerated by washing off antibody captured on the sensor chips and used repeatedly.
Binding strength was evaluated according to the following method based on the results of analyzing the interaction with each FcγR. […] That value was then further multiplied by 100, and the resulting value was used as an indicator of relative binding activity to each FcγR.

[2] = target: T2, human FcγRIIa(H) (human, UniProt P12318 36-217); experiment: SPR (Biacore), antibody captured on chip, FcgR injected, HBS-EP+, 25 C; bound amount corrected by captured amount; reference GpH7-G1d/GpL16-k0
T2 construct: also called hFcgRIIa(H); FcγRIIa type H
T2 sequence: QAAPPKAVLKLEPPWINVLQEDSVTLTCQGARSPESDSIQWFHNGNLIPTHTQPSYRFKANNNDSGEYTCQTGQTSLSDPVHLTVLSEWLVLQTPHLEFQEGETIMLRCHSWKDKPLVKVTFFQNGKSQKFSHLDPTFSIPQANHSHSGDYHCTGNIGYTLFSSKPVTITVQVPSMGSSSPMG
Experimental: as §1

[3] = target: T3, human FcγRIa (human, UniProt P12314 16-292, limits assumed); experiment: as above
T3 construct: also called hFcgRIa
T3 sequence (P12314 16-292 limits assumed): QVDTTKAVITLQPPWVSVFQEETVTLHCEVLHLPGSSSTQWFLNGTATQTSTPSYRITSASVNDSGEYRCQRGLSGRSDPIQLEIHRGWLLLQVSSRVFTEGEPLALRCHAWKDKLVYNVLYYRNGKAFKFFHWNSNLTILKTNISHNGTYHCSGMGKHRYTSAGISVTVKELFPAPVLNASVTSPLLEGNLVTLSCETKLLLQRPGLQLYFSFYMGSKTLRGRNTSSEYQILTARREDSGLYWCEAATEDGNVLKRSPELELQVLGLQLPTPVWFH
Experimental: as §1

[4] = target: T4, human FcγRIIb (human, UniProt P31994 43-217, limits assumed); experiment: as above
T4 construct: also called hFcgRIIb
T4 sequence: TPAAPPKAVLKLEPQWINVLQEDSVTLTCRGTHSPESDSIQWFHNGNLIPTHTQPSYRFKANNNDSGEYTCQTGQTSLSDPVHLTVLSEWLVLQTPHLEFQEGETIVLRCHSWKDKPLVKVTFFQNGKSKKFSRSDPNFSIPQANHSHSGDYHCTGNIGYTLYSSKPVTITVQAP
Experimental: as §1

[5] = target: T5, human FcγRIIIa(F) (human, UniProt P08637 17-208, limits assumed); experiment: as above
T5 construct: also called hFcgRIIIa(F); allotype F158
T5 sequence (P08637 other isoform, or with tags, fused parts or gaps limits assumed): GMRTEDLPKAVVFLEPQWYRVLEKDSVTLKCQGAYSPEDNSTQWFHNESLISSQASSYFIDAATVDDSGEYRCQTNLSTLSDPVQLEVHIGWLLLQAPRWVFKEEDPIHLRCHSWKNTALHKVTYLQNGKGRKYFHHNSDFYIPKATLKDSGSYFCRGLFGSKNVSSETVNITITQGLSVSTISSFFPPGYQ
Experimental: as §1

[6] = target: T6, human FcγRIIa(R) (human, UniProt P12318 36-217); experiment: as above
T6 construct: also called hFcgRIIa(R); FcγRIIa type R
T6 chain: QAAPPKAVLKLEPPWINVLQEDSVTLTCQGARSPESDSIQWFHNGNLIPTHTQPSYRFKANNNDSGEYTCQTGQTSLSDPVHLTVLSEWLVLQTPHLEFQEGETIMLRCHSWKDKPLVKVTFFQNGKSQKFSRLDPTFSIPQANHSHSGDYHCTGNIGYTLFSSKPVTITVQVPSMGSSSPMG
Experimental: as §1

[7] = target: T7, human FcγRIIa(H) (human, UniProt P12318 36-217); experiment: SPR (Biacore), captured antibody, FcγR analyte
T7 construct: also called FcgRIIaH; FcγRIIa type H
T7 sequence: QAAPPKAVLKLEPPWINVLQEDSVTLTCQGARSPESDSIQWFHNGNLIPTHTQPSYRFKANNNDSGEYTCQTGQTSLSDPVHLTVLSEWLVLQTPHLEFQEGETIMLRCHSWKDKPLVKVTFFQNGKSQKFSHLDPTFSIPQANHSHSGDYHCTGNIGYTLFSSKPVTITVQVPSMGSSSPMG
Experimental: Interaction between each modified antibody and Fcγ receptor prepared in the manner described above was analyzed using the BIACORE™ T100 surface plasmon resonance system (GE Healthcare), BIACORE™ T200 surface plasmon resonance system (GE Healthcare), BIACORE™ A100 surface plasmon resonance system or BIACORE™ 4000 surface plasmon resonance system. HBS-EP+(GE Healthcare) was used for the running buffer, and measurements were carried out at 25° C. The chips used were chips in which antigen peptides, Protein A (Thermo Scientific), Protein A/G (Thermo Scientific) or Protein L (ACTIGEN® protein (Alltech or BioVision) were immobilized on the Series S Sensor Chip CM5 (GE Healthcare) or Series S Sensor Chip CM4 (GE Healthcare) by amine coupling, or chips in which preliminarily biotinylated antigen peptides were allowed to interact and then immobilized on the Series S Sensor Chip SA (certified) (GE Healthcare). The target antibodies were captured on these sensor chips, Fcγ receptor diluted with the running buffer was allowed to interact, followed by measurement of the amount of bound antibody. The amounts bound were compared between antibodies. […]
Binding strength was evaluated according to the following method based on the results of analyzing the interaction with each FcγR. […]

[8] = target: T8, human FcγRIIa(R) (allotype R131) (human, UniProt P12318 36-217); experiment: SPR (Biacore T100), antibody captured by Protein L, FcγR as analyte, pH 7.4, 25 C
T8 construct: Soluble analyte in SPR; also called hFcgRIIa(R); FcgRIIaR
T8 chain: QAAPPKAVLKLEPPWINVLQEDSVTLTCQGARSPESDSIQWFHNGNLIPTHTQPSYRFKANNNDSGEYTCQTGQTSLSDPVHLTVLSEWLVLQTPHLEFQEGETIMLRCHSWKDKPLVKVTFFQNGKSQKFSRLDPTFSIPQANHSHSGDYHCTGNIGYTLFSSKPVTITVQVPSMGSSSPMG
Experimental: (§2) Interaction of these antibodies with FcγRIIa(R) and FcγRIIb was analyzed using the BIACORE™ T100 surface plasmon resonance system (GE Healthcare). Measurements were carried out at 25° C. using a buffer consisting of 20 mM N-(2-acetamido)-2-aminoethanesulfonic acid (ACES), 150 mM NaCl and 0.05% polysorbate 20 (Tween 20®) (pH 7.4) for the running buffer. The Series S Sensor Chip CM4 (GE Healthcare) was used after immobilizing Protein L by amine coupling. […] Antibody captured on the chip was washed by reacting with 10 mM glycine-HCl (pH 1.5) following measurement, and the chip regenerated in this manner was used repeatedly.
(§3) Measurement results were analyzed using the BIACORE™ Evaluation Software. Antibody was captured by Protein L, and the amount of change in a sensorgram before and after the antibody was captured was defined as X1. […]

[9] = target: T9, human FcγRIIb (human, UniProt P31994 43-217, limits assumed); experiment: as above
T9 construct: Soluble analyte in SPR; also called hFcgRIIb; FcgRIIb
T9 sequence: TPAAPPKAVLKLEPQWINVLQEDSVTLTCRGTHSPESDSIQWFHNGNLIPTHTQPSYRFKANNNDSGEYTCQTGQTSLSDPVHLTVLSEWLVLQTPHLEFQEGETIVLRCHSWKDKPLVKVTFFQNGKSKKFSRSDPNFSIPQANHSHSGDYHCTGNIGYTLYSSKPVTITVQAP
Experimental: as §2, §3

[10] = target: T5, human FcγRIIIa(F); experiment: SPR (Biacore), antibody captured on Protein L, human FcgR injected, pH 7.4, 25 C; normalised to captured amount x 1500
Experimental: Binding activity between the antibodies and human FcγRIa, FcγRIIa(H), FcγRIIa(R), FcγRIIb and FcγRIIIa(F) (hereinafter referred to as human FcγRs) was evaluated using the BIACORE™ T100 or T200 surface plasmon resonance system (GE Healthcare). The antibodies being tested were captured by Protein L (ACTIGEN® protein (Alltech)) that was immobilized in suitable amounts on the CM4 Sensor Chip (GE Healthcare) by amine coupling. Next, the diluted human FcγRs and a running buffer used as a blank were injected to allow interaction with the antibodies captured on the sensor chip. A buffer consisting of 20 mmol/L N-(2-acetamido)-2-aminoethanesulfonic acid (ACES), 150 mmol/L NaCl and 0.05% (w/v) polysorbate 20 (Tween 20®) (pH 7.4) was used for the running buffer, and this buffer was also used to dilute the human FcγRs. 10 mmol/L glycine-HCl (pH 1.5) was used to regenerate the sensor chip. All measurements were carried out at 25° C.
Binding activity to human FcγRs can be represented by the relative binding activity to human FcγRs. Antibody was captured by Protein L, and the amount of change in a sensorgram before and after the antibody was captured was defined as X1. […]

[11] = target: T10, human FcγRIIa type R (human, UniProt P12318 36-217); experiment: SPR (Biacore), antibody captured, FcγR as analyte, method of Example 14
T10 construct: also called FcγRIIaR; FcγRIIa(R)
T10 chain: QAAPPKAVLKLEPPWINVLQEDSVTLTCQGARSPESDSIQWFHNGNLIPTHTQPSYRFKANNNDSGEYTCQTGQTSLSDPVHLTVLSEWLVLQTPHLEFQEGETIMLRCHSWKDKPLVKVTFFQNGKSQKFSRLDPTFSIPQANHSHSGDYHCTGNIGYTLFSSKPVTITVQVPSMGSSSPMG
Experimental: (§4) Next, interaction between these antibodies and FcγR was analyzed kinetically using the BIACORE™ T100 (GE Healthcare). The interaction was measured at a temperature of 25° C. using HBS-EP+ (GE Healthcare) for the running buffer. The Series S Sensor Chip CM5 (GE Healthcare) was used after immobilizing Protein A by amine coupling. […] Antibody captured on the chip was washed by allowing 10 mM glycine-HCl (pH 1.5) to react following measurement. The chip regenerated in this manner was used repeatedly. The dissociation constant KD (mol/L) was calculated from the association rate constant ka (L/mol/s) and dissociation rate constant kd (1/s) as calculated by global-fitting the measurement results with a 1:1 Langmuir binding model using the BIACORE™ Evaluation Software.
(§5) Furthermore, KD(IIaR)/KD(IIb) and KD(IIaH)/KD(IIb) in the table respectively show the value obtained by dividing the KD value of each variant for FcγRIIaR by the KD value of each variant for FcγRIIb, and the value obtained by dividing the KD value of each variant for FcγRIIaH by the KD value of each variant for FcγRIIb.

[12] = target: T11, human FcγRIIb (human, UniProt P31994 43-217); experiment: as above
T11 construct: also called FcγRIIb extracellular region; FcγIIB
T11 sequence: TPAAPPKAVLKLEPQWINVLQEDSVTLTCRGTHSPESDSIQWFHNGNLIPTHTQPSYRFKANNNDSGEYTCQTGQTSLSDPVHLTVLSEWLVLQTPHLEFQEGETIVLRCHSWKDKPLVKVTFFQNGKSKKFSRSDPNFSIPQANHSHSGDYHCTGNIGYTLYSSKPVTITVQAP
Experimental: as §4, §5

[13] = target: T12, human FcγRIa (human, UniProt P12314 16-292, limits assumed); experiment: as above
T12 construct: also called CD64
T12 sequence (P12314 16-292 limits assumed): as the sequence (P12314 16-292 limits assumed) above
Experimental: as §4, §5

[14] = target: T11, human FcγRIIb; experiment: ratio of SPR KD values of the same variant: KD for FcγRIIaH / KD for FcγRIIb
Experimental: as §4, §5

[15] = target: T11, human FcγRIIb; experiment: ratio of SPR KD values of the same variant: KD for FcγRIIaR / KD for FcγRIIb
Experimental: as §4, §5

[16] = target: T11, human FcγRIIb; experiment: ratio of SPR KD values for FcγRIIb; reference: parent polypeptide IL6R-F11/IL6R-L
Experimental: as §4, §5

[17] = target: T2, human FcγRIIa(H); experiment: SPR (Biacore), antibody captured on chip, FcgR injected, HBS-EP+, 25 C; bound amount corrected by captured amount; reference itself
[18] = target: T3, human FcγRIa; experiment: as above
[19] = target: T4, human FcγRIIb; experiment: as above
[20] = target: T5, human FcγRIIIa(F); experiment: as above
[21] = target: T6, human FcγRIIa(R); experiment: as above

B1: GpH7-B3 N325Y/GpL16-k0 (antibody, human IgG1)
heavy: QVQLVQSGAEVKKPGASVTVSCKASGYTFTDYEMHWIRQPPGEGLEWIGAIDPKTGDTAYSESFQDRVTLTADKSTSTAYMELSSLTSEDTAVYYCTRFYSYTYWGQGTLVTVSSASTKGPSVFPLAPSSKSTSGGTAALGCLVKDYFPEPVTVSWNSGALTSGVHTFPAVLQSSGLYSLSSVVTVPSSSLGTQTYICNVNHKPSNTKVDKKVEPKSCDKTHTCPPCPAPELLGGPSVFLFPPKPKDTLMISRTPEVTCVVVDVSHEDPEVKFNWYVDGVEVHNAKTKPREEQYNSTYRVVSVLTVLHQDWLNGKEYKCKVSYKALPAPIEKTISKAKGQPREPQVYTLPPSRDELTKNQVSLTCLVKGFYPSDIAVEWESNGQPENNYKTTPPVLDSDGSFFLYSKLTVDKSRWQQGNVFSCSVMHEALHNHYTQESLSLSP
light: DIVMTQSPLSLPVTPGEPASISCQASESLVHSNRNTYLHWYLQKPGQSPQLLIYKVSNRFSGVPDRFSGSGSGTDFTLKISRVEAEDVGVYYCSQNTHVPPTFGQGTKVEIE
notes: Anti-glypican-3 human IgG1 with B3 constant region (G1d with K439E); also called B3 variant; copies: 2 + 2
relative binding activity [1]: -9 % of GpH7-B3/GpL16-k0

B2: GpH7-B3/GpL16-k0 (antibody, human IgG1)
heavy: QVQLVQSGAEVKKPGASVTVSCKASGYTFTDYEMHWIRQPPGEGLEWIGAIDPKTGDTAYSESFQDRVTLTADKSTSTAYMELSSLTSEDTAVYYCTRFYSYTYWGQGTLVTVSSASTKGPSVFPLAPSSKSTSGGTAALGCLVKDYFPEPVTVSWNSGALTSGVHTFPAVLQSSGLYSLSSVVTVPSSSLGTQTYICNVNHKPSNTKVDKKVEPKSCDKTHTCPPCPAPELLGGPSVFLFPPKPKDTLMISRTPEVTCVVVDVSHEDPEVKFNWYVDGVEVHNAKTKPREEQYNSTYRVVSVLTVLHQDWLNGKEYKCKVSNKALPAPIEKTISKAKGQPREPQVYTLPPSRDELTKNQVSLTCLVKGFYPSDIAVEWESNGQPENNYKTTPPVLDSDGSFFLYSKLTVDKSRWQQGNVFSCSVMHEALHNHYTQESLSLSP
light: DIVMTQSPLSLPVTPGEPASISCQASESLVHSNRNTYLHWYLQKPGQSPQLLIYKVSNRFSGVPDRFSGSGSGTDFTLKISRVEAEDVGVYYCSQNTHVPPTFGQGTKVEIE
notes: also called anti-glypican-3 antibody with B3 constant region (G1d with K439E)
relative binding activity (amount bound / amount bound by GpH7-G1d/GpL16-k0 x 100) [2]: 92
relative binding activity (amount bound / amount bound by GpH7-G1d/GpL16-k0 x 100) [3]: 109
relative binding activity (amount bound / amount bound by GpH7-G1d/GpL16-k0 x 100) [4]: 88
relative binding activity (amount bound / amount bound by GpH7-G1d/GpL16-k0 x 100) [5]: 88
relative binding activity (amount bound / amount bound by GpH7-G1d/GpL16-k0 x 100) [6]: 94

B3: GpH7-B3 variant V266R/GpL16-k0 (antibody, human IgG1)
heavy: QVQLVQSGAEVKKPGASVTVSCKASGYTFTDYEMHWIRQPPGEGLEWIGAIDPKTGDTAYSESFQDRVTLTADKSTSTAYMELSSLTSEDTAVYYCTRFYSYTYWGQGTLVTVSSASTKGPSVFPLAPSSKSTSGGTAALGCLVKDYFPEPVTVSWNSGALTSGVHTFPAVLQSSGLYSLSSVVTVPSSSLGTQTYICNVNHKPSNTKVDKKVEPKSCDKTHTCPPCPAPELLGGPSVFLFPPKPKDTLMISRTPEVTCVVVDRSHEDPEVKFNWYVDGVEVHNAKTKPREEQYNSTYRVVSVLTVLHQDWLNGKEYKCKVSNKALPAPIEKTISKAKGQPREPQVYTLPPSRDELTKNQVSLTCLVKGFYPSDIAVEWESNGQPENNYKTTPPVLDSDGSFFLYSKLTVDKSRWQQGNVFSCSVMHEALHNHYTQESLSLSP
light: DIVMTQSPLSLPVTPGEPASISCQASESLVHSNRNTYLHWYLQKPGQSPQLLIYKVSNRFSGVPDRFSGSGSGTDFTLKISRVEAEDVGVYYCSQNTHVPPTFGQGTKVEIE
notes: anti-glypican-3 IgG1; alteration introduced into GpH7-B3; copies: 2 + 2
relative binding activity [7]: 1 % of GpH7-B3/GpL16-k0

B4: GpH7-B3 variant V266K/GpL16-k0 (antibody, human IgG1)
heavy: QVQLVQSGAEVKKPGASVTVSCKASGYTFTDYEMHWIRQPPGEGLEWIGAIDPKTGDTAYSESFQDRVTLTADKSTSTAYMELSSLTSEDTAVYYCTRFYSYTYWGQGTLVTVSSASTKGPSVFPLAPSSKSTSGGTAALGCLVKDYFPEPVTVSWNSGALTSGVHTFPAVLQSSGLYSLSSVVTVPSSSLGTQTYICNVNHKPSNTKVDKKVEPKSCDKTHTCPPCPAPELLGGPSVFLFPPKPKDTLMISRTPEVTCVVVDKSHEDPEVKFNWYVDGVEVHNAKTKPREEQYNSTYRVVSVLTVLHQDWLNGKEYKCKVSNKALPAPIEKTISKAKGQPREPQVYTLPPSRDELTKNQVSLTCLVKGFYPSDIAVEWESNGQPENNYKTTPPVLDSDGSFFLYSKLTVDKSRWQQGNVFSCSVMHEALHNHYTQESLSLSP
light: DIVMTQSPLSLPVTPGEPASISCQASESLVHSNRNTYLHWYLQKPGQSPQLLIYKVSNRFSGVPDRFSGSGSGTDFTLKISRVEAEDVGVYYCSQNTHVPPTFGQGTKVEIE
notes: as for B3
relative binding activity [7]: 1 % of GpH7-B3/GpL16-k0

B5: antibody containing VH3-IgG1-F652 for the heavy chain and L(WT)-CK for the light chain (antibody)
heavy: QVQLQESGPGLVKPSETLSLTCAVSGHSISHDHAWSWVRQPPGEGLEWIGFISYSGITNYNPSLQGRVTISRDNSKNTLYLQMNSLRAEDTAVYYCARSLARTTAMDYWGEGTLVTVSSASTKGPSVFPLAPSSKSTSGGTAALGCLVKDYFPEPVTVSWNSGALTSGVHTFPAVLQSSGLYSLSSVVTVPSSSLGTQTYICNVNHKPSNTKVDKKVEPKSCDKTHTCPPCPAPELLGGDSVFLFPPKPKDTLYISRTPEVTCVVVDVSHEDPEVKFNWYVDGVEVHNAKTKPREEQYNSTYRVVSVLTVLHQDWLNGKEYKCKVSNKALPAPIEKTISKAKGQPREPQVYTLPPSRDELTKNQVSLTCLVKGFYPSDIAVEWESNGQPENNYKTTPPVLDSDGSFFLYSKLTVDKSRWQQGNVFSCSVMHEALHYHYTQKSLSLSP
light: not shown
notes: VH3-IgG1-F11 with P238D (EU numbering)
BINDING AMOUNT (RU) [8]: 9.1 RU
BINDING AMOUNT (RU) [9]: 64 RU

B6: antibody containing VH3-IgG1-F1356 for the heavy chain and L(WT)-CK for the light chain (antibody)
heavy: QVQLQESGPGLVKPSETLSLTCAVSGHSISHDHAWSWVRQPPGEGLEWIGFISYSGITNYNPSLQGRVTISRDNSKNTLYLQMNSLRAEDTAVYYCARSLARTTAMDYWGEGTLVTVSSASTKGPSVFPLAPSSKSTSGGTAALGCLVKDYFPEPVTVSWNSGALTSGVHTFPAVLQSSGLYSLSSVVTVPSSSLGTQTYICNVNHKPSNTKVDKKVEPKSCDKTHTCPPCPAPELLRGPSVFLFPPKPKDTLYISRTPEVTCVVVDVSHEDPEVKFNWYVDGVEVHNAKTKPREEQYNSTYRVVSVLTVLHQDWLNGKEYKCKVSNKARPAPIEKTISKAKGQPREPQVYTLPPSRDELTKNQVSLTCLVKGFYPSDIAVEWESNGQPENNYKTTPPVLDSDGSFFLYSKLTVDKSRWQQGNVFSCSVMHEALHYHVTQKSLSLSP
light: not shown
BINDING AMOUNT (RU) [10]: 4.09 RU

B7: IL6R-PD080/IL6R-L (antibody)
heavy: QVQLQESGPGLVKPSETLSLTCAVSGHSISHDHAWSWVRQPPGEGLEWIGFISYSGITNYNPSLQGRVTISRDNSKNTLYLQMNSLRAEDTAVYYCARSLARTTAMDYWGEGTLVTVSSASTKGPSVFPLAPSSKSTSGGTAALGCLVKDYFPEPVTVSWNSGALTSGVHTFPAVLQSSGLYSLSSVVTVPSSSLGTQTYICNVNHKPSNTKVDKKVEPKSCDKTHTCPPCPAPELLGDDSVFLFPPKPKDTLYISRTPEVTCVVVDVSHEDPEVKFNWYVDGVEVHNAKTKPREEQYNSTYRVVSVLTVLHQDWLNGKEYKCKVSNKALPAPIEKTISKAKGQPREPQVYTLPPSRDELTKNQVSLTCLVKGFYPSDIAVEWESNGQPENNYKTTPPVLDSDGSFFLYSKLTVDKSRWQQGNVFSCSVMHEALHYHYTQKSLSLSP
light: DIQMTQSPSSLSASVGDRVTITCRASQDISSYLNWYQQKPGKAPKLLIYYTSRLHSGVPSRFSGSGSGTDFTFTISSLQPEDIATYYCQQGNTLPYTFGQGTKVEIK
notes: Alteration is counted against IL6R-F11; also called G237D/P238D; P238D/G237D
Kd [11]: 21000 nM
Kd [12]: 2000 nM
Kd [13]: 140 nM
KD(IIaH)/KD(IIb) [14]: 12.8
KD(IIaR)/KD(IIb) [15]: 10.7
KD(IIb) of parent polypeptide/KD(IIb) of altered polypeptide [16]: 3.5

B8: GpH7-G1d/GpL16-k0 (antibody)
chain 1: not shown
chain 2: DIVMTQSPLSLPVTPGEPASISCQASESLVHSNRNTYLHWYLQKPGQSPQLLIYKVSNRFSGVPDRFSGSGSGTDFTLKISRVEAEDVGVYYCSQNTHVPPTFGQGTKVEIERTVAAPSVFIFPPSDEQLKSGTASVVCLLNNFYPREAKVQWKVDNALQSGNSQESVTEQDSKDSTYSLSSTLTLSKADYEKHKVYACEVTHQGLSSPVTKSFNRGEC
relative binding activity (amount bound / amount bound by GpH7-G1d/GpL16-k0 x 100) [17]: 100
relative binding activity (amount bound / amount bound by GpH7-G1d/GpL16-k0 x 100) [18]: 100
relative binding activity (amount bound / amount bound by GpH7-G1d/GpL16-k0 x 100) [19]: 100
relative binding activity (amount bound / amount bound by GpH7-G1d/GpL16-k0 x 100) [20]: 100
relative binding activity (amount bound / amount bound by GpH7-G1d/GpL16-k0 x 100) [21]: 100
